We go through three substances from US20050123920A1.

The target in experiment [1] is FL-Jade-1 (tagged library clone, transfected) (human). Nature of the experiment: co-immunoprecipitation of cotransfected proteins.
The next experiment deals with HA-VHL (UniProt P40337). The experiment can be described thus: co-immunoprecipitation of cotransfected proteins.
The target of experiment [2] is human Jade-1 protein (human). The experiment can be described thus: cell-based or functional assay.
Experiment [3] concerns the target human Jade-1 protein (human). The experiment can be described thus: estimate based upon co-localization data (immunofluorescence).

UniProt P40337, sequence (P40337 whole entry): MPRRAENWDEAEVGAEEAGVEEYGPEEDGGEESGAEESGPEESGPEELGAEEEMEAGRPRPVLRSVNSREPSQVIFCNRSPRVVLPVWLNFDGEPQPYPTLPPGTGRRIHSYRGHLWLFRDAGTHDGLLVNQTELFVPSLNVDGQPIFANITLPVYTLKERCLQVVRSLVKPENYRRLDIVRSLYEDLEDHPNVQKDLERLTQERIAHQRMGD

HA-VHL (from UniProt P40337 1-213): the percent of VHL in the cell lysate immunoprecipitable with Jade-1 (vice-versa) in experiment [1] is 30 to 40%.

In the experiment with HA-VHL, “FL-Jade-1 (tagged library clone, transfected)” yielded a percent of Jade-1 in the cell lysate immunoprecipitable with VHL of 30 to 40%.

Take “von Hippel-Lindau (VHL) protein, wild-type human (from UniProt P40337 1-213)”: in experiment [2], the endogenous Jade-1 protein half-life in VHL-plus 786-O renal cancer cells (~40 minutes in VHL-minus cells), metabolic labeling worked out at 1 h; the half-life of Jade-1 transiently transfected with VHL (data not shown) was 1.5 h; the increase of Jade-1 protein half-life with cotransfected VHL in 293 cells, pulse-chase was determined as 2 fold. Further, the percent of VHL that associates with Jade-1 in experiment [3] was under 10%.
